According to patent US20190322720A1:

Columns and labels:
[1] = target: 16C3 antigen (CEACAM5 and/or CEACAM6) on tumor cells; assay: flow cytometry, CFPAC-1 pancreatic cells
[2] = target: 16C3 antigen (CEACAM5 and/or CEACAM6) on tumor cells; assay: flow cytometry, CFPAC-1 pancreatic cells; remark: listed apart in the source
[3] = target: 16C3 antigen (CEACAM5 and/or CEACAM6) on tumor cells; assay: rosetting assay, antibody-coupled beads on CFPAC-1 cells
[4] = target: 16C3 antigen (CEACAM5 and/or CEACAM6) on tumor cells; assay: rosetting assay, h16C3-coupled beads on CFPAC-1 cells in the presence of 4B6 at 5 µg/ml
[5] = target: 16C3 antigen (CEACAM5 and/or CEACAM6) on tumor cells; assay: flow cytometry, LS174T colorectal cells
[6] = target: 16C3 antigen (CEACAM5 and/or CEACAM6) on tumor cells; assay: flow cytometry, LS174T colorectal cells; remark: listed apart in the source
[7] = target: 16C3 antigen (CEACAM5 and/or CEACAM6) on tumor cells; assay: flow cytometry, HT-29 colorectal cells
[8] = target: 16C3 antigen (CEACAM5 and/or CEACAM6) on tumor cells; assay: flow cytometry, HT-29 colorectal cells; remark: listed apart in the source

B1: h16C3 (antibody, from a related filing, V domains shown)
VH: QVQLVQSGAEVKKPGASVKVSCKASGYTFTDYAMHWVRQAPGQRLEWMGLISTYSGDTKYNQNFQGRVTMTVDKSASTAYMELSSLRSEDTAVYYCARGDYSGSRYWFAYWGQGTLVTVSS
VL: DIQMTQSPSSLSASVGDRVTITCQASENIYGALNWYQRKPGKSPKLLIYGASNLATGMPSRFSGSGSGTDYTFTISSLQPEDIATYYCQQVLSSPYTFGGGTKLEIKR
Q: With B1 as the binder, how does the % Cell Staining [1] read?
A: The % Cell Staining was 91.8%.

Q: What about the mean fluorescence intensity [1] of the same binder?
A: The mean fluorescence intensity was 91 mfi.

Q: What about the mean fluorescence intensity [2] of the same binder?
A: Its mean fluorescence intensity is 91 mfi.

Q: What about the Rosetted cells (>8 beads) [3] of the same binder?
A: The Rosetted cells (>8 beads) was 53%.

Q: What about the Rosetted cells (>8 beads) [4] of the same binder?
A: Its Rosetted cells (>8 beads) is 50%.

Q: And the % Cell Staining [5]?
A: Its % Cell Staining is 69.4%.

Q: And the mean fluorescence intensity [5]?
A: The mean fluorescence intensity was 103 mfi.

Q: What about the mean fluorescence intensity [6] of the same binder?
A: The mean fluorescence intensity was 103 mfi.

Q: What about the % Cell Staining [7] of the same binder?
A: The % Cell Staining was 26.3%.

Q: And the mean fluorescence intensity [7]?
A: The mean fluorescence intensity was 44 mfi.

Q: And the mean fluorescence intensity [8]?
A: Its mean fluorescence intensity is 44 mfi.
